From the supplement of paper PMC10567573
± gives the standard deviation.

Test: protein stability index of a GFP-peptide fusion (GPS, HEK-293T) (PSI 1-6); higher = more stable
[1] = treatment: DMSO, c terminus: a fixed tail appended
[2] = treatment: MLN4924 1 uM, 8 h, c terminus: a fixed tail appended
[3] = treatment: DMSO, c terminus: native
[4] = treatment: MLN4924 1 uM, 8 h, c terminus: native
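Further: 24-mer peptide tiles fused after GFP, lentivirally expressed, FACS-sorted into six equal bins by GFP/DsRed ratio, decoded by Illumina sequencing, PSI is the read-weighted mean bin number.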

KIEGHQDAVTAALLIPKEDGVITA [WDFY1]
protein stability index [1]: 4.35 ± 0.23
protein stability index [2]: 4.4 ± 0.28

QQVPMPPGQEAQRVVCGIDSSMIL [NEK8]
protein stability index [1]: 3.39 ± 0.29
protein stability index [2]: 3.5 ± 0.33

LHYAAASDMDRNKTILGNAHDNSE [ANKRD44]
protein stability index [1]: 4.76 ± 0.15
protein stability index [2]: 4.9 ± 0.044

RAWSQCGGGGLRAWSQRSAAGRVC [CPOX]
protein stability index [1]: 2.71 ± 0.077
protein stability index [2]: 2.88 ± 0.37

ATLCLEFLLQNDANPSIRDKEGYN [ANKRD44]
protein stability index [1]: 2.61 ± 0.26
protein stability index [2]: 2.73 ± 0.074

QLQLKIIEIEDEAEKWQKEKDRIK [TRIM29]
protein stability index [1]: 3.35 ± 0.24
protein stability index [2]: 3.6 ± 0.36

FYSQEWYARQHCPLKNPTFLDYVR [SOAT1]
protein stability index [1]: 2.4 ± 0.47
protein stability index [2]: 2.13 ± 0.25

NLQDLCRIKIRQCIGLQNLKLLDE [ASB7]
protein stability index [1]: 3.57 ± 0.24
protein stability index [2]: 3.56 ± 0.31

NIQAGINENDFYDGAWCAGRNDLQ [CPXM2]
protein stability index [2]: 3.48 ± 0.71

ATIFALSTMTSSVQIYNLSQNIQE [ATL3]
protein stability index [1]: 3.03 ± 0.76
protein stability index [2]: 3.27 ± 0.71

TEPPVALAPGPAPTRCLPGHKEEE [ESRRA]
protein stability index [1]: 5.28 ± 0.12
protein stability index [2]: 5.36 ± 0.34

EFSRATAEKVNQDMCMKVPDDPEH [CRYL1]
protein stability index [1]: 5.62 ± 0.17
protein stability index [2]: 5.12 ± 0.75

SRSYSPRRSRGSPRYSPRHSRSRS [SRSF1]
protein stability index [1]: 5.39 ± 0.24
protein stability index [2]: 5.5 ± 0.25

KDIVQTVRSRLEEAGIKVHDVRLN [TENT5C]
protein stability index [1]: 2.44 ± 0.35
protein stability index [2]: 2.78 ± 0.28

FMEFYQDVKDWWLFGFYFCMPLVC [EDNRA]
protein stability index [1]: 3.155 ± 0.026
protein stability index [2]: 3.2 ± 0.56

LHDIFENKTDVVLILELVSGGELF [DAPK3]
protein stability index [1]: 1.87 ± 0.37
protein stability index [2]: 2.39 ± 0.58

VRYNRVGILRRILRTLRDFPAEER [ANKRD9]
protein stability index [1]: 2.4 ± 0.16
protein stability index [2]: 2.6 ± 0.56

SHRSNLIRHQRIHTGEKPYTCHEC [ZNF263]
protein stability index [1]: 3.16 ± 0.26
protein stability index [2]: 3.49 ± 0.23

KCLLYCNGVLEPLYLCPNGARCAT [SLC25A39]
protein stability index [1]: 2.24 ± 0.11
protein stability index [2]: 2.11 ± 0.27

METSAPRAGSQVVATTARHSAAYR [FUNDC2]
protein stability index [1]: 4.5 ± 0.19
protein stability index [2]: 4.2 ± 0.11

RGDSGRLGLGTRESHSCPQQVPMP [NEK8]
protein stability index [1]: 4.07 ± 0.18
protein stability index [2]: 4.19 ± 0.28

LRSFEGLMGTIKSKVSGGKRAWP [TPD52L3]
protein stability index [3]: 2.94 ± 0.91
protein stability index [4]: 3.63 ± 0.26

MEHQLLCCEVETIRRAYPDANLLN [CCND1]
protein stability index [1]: 2.86 ± 0.24
protein stability index [2]: 2.87 ± 0.28

PLMVASAQSGERECHIVVLTDDDV [BTBD10]
protein stability index [1]: 3.71 ± 0.32
protein stability index [2]: 3.92 ± 0.15

TAGQERFRALAPMYYRGSAAAIIV [RAB22A]
protein stability index [1]: 2.26 ± 0.091
protein stability index [2]: 2.25 ± 0.26

YCLTCEVPTCSMCKVFGIHKACEV [TRIM63]
protein stability index [1]: 2.69 ± 0.45
protein stability index [2]: 2.8 ± 0.33

YQRNLPRPGQAPIGNPPVGPIGGM [ZNF207]
protein stability index [1]: 2.87 ± 0.32
protein stability index [2]: 3.31 ± 0.41

SEDRRSRHCPYLDTINRSVLDFDF [USP39]
protein stability index [1]: 3.18 ± 0.074
protein stability index [2]: 3.44 ± 0.3

HECILPFVQVKGNFARLQTCISEL [M1AP]
protein stability index [1]: 2.21 ± 0.11
protein stability index [2]: 2.21 ± 0.13

KCKSTLSPPEASPGPPAAPRARRR [PWWP2B]
protein stability index [1]: 5.19 ± 0.12
protein stability index [2]: 5.34 ± 0.26

PGSLLCTVAASDPDTGDNARLTYS [PCDHGC5]
protein stability index [1]: 4.12 ± 0.29
protein stability index [2]: 4 ± 0.14

KRTIIPTLVEAIKEQDGREVDWEY [DFFB]
protein stability index [1]: 4.14 ± 0.11
protein stability index [2]: 4.36 ± 0.42

TLSNPQMSLEGTEKASWLGEQPQF [ELF3]
protein stability index [1]: 4.26 ± 0.34
protein stability index [2]: 4.21 ± 0.37

RKSLFDDKAVEIEELTYIIKQDIN [STX5]
protein stability index [1]: 2.9 ± 0.18
protein stability index [2]: 2.76 ± 0.31

TAGKVLAHFYGVKLEGKVPMHKLF [ESRRA]
protein stability index [1]: 2.41 ± 0.39
protein stability index [2]: 2.44 ± 0.79

VLGIQVKCFHEIITIGYRVYHSYD [CDS1]
protein stability index [1]: 3.25 ± 0.25
protein stability index [2]: 3.04 ± 0.17

TYAVRKLDNTKFRSHEGETAYIRV [SRSF1]
protein stability index [1]: 2.46 ± 0.39
protein stability index [2]: 2.38 ± 0.3

VNAVRKLLIEGRSVNEHTEEGESL [ANKRD17]
protein stability index [1]: 4.73 ± 0.24
protein stability index [2]: 4.79 ± 0.35

SSCIPKAFGNPKFALQGLPLNCAP [IRX6]
protein stability index [1]: 2.46 ± 0.25
protein stability index [2]: 2.75 ± 0.18

MRLSSSPPRGPQQLSSFGSVDWLS [VENTX]
protein stability index [1]: 2.99 ± 0.059
protein stability index [2]: 3.15 ± 0.3

DLSMDGLFGTIAYLPPERIREKSR [RIPK4]
protein stability index [1]: 3.58 ± 0.27
protein stability index [2]: 3.66 ± 0.34

ITCSSTMSYSCCLPSLGCRTSCSS [KRT34]
protein stability index [1]: 2.19 ± 0.16
protein stability index [2]: 2.1 ± 0.32

RYLADLLPSVFGSLRDSGYFYDPI [RSPH3]
protein stability index [1]: 2.55 ± 0.49
protein stability index [2]: 2.6 ± 0.66

TSRGKLGGQDSFESIESYDSCDRL [ETS1]
protein stability index [1]: 4.62 ± 0.16
protein stability index [2]: 4.68 ± 0.13

GAYSSASSFSRPLGYPYVNSVSSH [DLX1]
protein stability index [1]: 3.1 ± 0.15
protein stability index [2]: 3.12 ± 0.25

RPASSGGAHTLVNHGYAEPAAGRE [KCNA3]
protein stability index [1]: 4.7 ± 0.44
protein stability index [2]: 4.86 ± 0.23

EDPEENPYGPPPDAVQTSLMDEGA [RBBP5]
protein stability index [1]: 5.56 ± 0.33
protein stability index [2]: 5.46 ± 0.29

AKHRLVPPAQGRVSRRLSPRKVST [TRIM9]
protein stability index [1]: 4.37 ± 0.23
protein stability index [2]: 4.65 ± 0.12

RRGSTPLHMAVERRVRGVVELLLA [RIPK4]
protein stability index [1]: 2.9 ± 0.085
protein stability index [2]: 2.67 ± 0.045

RTSTFDPSHSDNLLHGLNLLWRKQ [KLHL14]
protein stability index [1]: 2.96 ± 0.17
protein stability index [2]: 2.94 ± 0.15

DWEAVPQRKLKPPIVPKIAGDGDT [PRKX]
protein stability index [1]: 4.9 ± 0.21
protein stability index [2]: 4.87 ± 0.24

ILCNKTAYQEVFKPENISLRNKLR [SMG5]
protein stability index [1]: 2.46 ± 0.24
protein stability index [2]: 2.77 ± 0.23

AALELLPRELFPPLFMAAFDGRHS [PRAME]
protein stability index [1]: 2.27 ± 0.38
protein stability index [2]: 2.4 ± 0.18

ELERIGPQHQAGSDSLLTGMAFFK [CNOT7]
protein stability index [1]: 3.25 ± 0.34
protein stability index [2]: 3.62 ± 0.11

RPNSRHTPSFSGDSSSSCSDHCIT [VDR]
protein stability index [1]: 4.52 ± 0.086
protein stability index [2]: 4.45 ± 0.25

ESPDEMELDELLKEISRKRRSIRY [PTPRD]
protein stability index [1]: 3.05 ± 0.24
protein stability index [2]: 3.4 ± 0.069

EAPKYHIPYWVAYYLALLLSLLVM [NSDHL]
protein stability index [1]: 2.63 ± 0.36
protein stability index [2]: 2.53 ± 0.69

EVIYPQHSKLTDREKTNICYLSFP [DENND6A]
protein stability index [1]: 2.2 ± 0.43
protein stability index [2]: 2.54 ± 0.38

TPLASSTDHQTPPTSPVQGTTPQI [HDAC6]
protein stability index [1]: 5.17 ± 0.16
protein stability index [2]: 5.03 ± 0.16

DDSDTQQVVVLVRDNGDPSLSSTA [PCDHGC5]
protein stability index [1]: 4.76 ± 0.16
protein stability index [2]: 4.83 ± 0.22

FYKREMFDPAEKYKMDHRRRGIAL [CASP6]
protein stability index [1]: 2.84 ± 0.2
protein stability index [2]: 2.78 ± 0.26

TITLNCPRNSDMKNQGEENGFPDS [EDARADD]
protein stability index [1]: 4.11 ± 0.51
protein stability index [2]: 4.23 ± 0.19

SSCHFARDSSFLISGGFDRTVAIW [WDR88]
protein stability index [1]: 2.42 ± 0.45
protein stability index [2]: 2.51 ± 0.55

RADQLCQQELRELRRELELLGRER [PRPH]
protein stability index [1]: 3.45 ± 0.17
protein stability index [2]: 3.37 ± 0.56

NPKDCSENIEVKEGGLYFERRPVA [SPSB2]
protein stability index [1]: 4.68 ± 0.17
protein stability index [2]: 4.76 ± 0.058

ESLTEDEATQFLKQILDGVHYLHS [DAPK3]
protein stability index [1]: 3.06 ± 0.28
protein stability index [2]: 3.29 ± 0.28

PKPSGLEPGPAAYGLKPLTPNSKY [KCTD13]
protein stability index [1]: 4.42 ± 0.23
protein stability index [2]: 4.22 ± 0.26

NRQCLCSAESMVEYGTCMCLVKGI [SPRY1]
protein stability index [1]: 3.82 ± 0.28
protein stability index [2]: 3.83 ± 0.26

TWMLEVCEEQKCEEEVFPLAMNYL [CCND2]
protein stability index [1]: 2.84 ± 0.23
protein stability index [2]: 2.89 ± 0.3

LIQNEYRNGGSLADAISENYRIMS [WEE1]
protein stability index [1]: 2.38 ± 0.31
protein stability index [2]: 2.5 ± 0.48

RKTQKKVPDVKEMEKSSFTEYIES [TAF7L]
protein stability index [1]: 4.43 ± 0.13
protein stability index [2]: 4.47 ± 0.27

DEASAATPPSSRRVWSPPRVHKVE [ZBTB22]
protein stability index [1]: 5 ± 0.073
protein stability index [2]: 4.99 ± 0.15

LLRMCSHGEGKINYYNFVRAFSN [EFHC1]
protein stability index [3]: 2.32 ± 0.66
protein stability index [4]: 2.08 ± 0.57

ELADHIERLKANDNLKFSQEYESI [PTPRD]
protein stability index [1]: 3.48 ± 0.25
protein stability index [2]: 3.74 ± 0.28

LPMATVDIKNPEITTNRFYGPQVN [WASL]
protein stability index [1]: 3.4 ± 0.75
protein stability index [2]: 3.54 ± 0.34

HGTKNVTNSSSLRLPRQNSDGGQK [WSB1]
protein stability index [1]: 4.96 ± 0.2
protein stability index [2]: 4.87 ± 0.47

VEMESEEQIAERKRKMVSWEASSL [KMT2E]
protein stability index [1]: 3.67 ± 0.22
protein stability index [2]: 3.87 ± 0.73

CAQMLPPNLSPHAPWNYHYHCPGS [TRAF3IP2]
protein stability index [1]: 2.56 ± 0.49
protein stability index [2]: 2.28 ± 0.29

VIYCLGGYDGLNILNSVEKYDPHT [KLHL12]
protein stability index [1]: 2.39 ± 0.54
protein stability index [2]: 2.18 ± 0.39

VEGAMHIQECVPEDLELKKKIFAQ [CRYL1]
protein stability index [1]: 4.74 ± 0.45
protein stability index [2]: 4.27 ± 0.2

PEIEKADDHLQQPLQNQKILKRTG [ZNF649]
protein stability index [1]: 5.3 ± 0.29
protein stability index [2]: 5.5 ± 0.24

EQDRIPEVHVPPSSAVSGVKEWFG [MIA2]
protein stability index [1]: 4.35 ± 0.099
protein stability index [2]: 4.46 ± 0.35

DAAHPTNVQRLAEPSQMLKHAVVN [CTNNB1]
protein stability index [1]: 4.62 ± 0.19
protein stability index [2]: 4.62 ± 0.15

PRDLPKHTPLISKSQSLRSVRRSE [RASAL3]
protein stability index [1]: 5.19 ± 0.27
protein stability index [2]: 5.43 ± 0.2

RAVRQSVTSFPDADAFHHQVHDDD [EMD]
protein stability index [1]: 5.2 ± 0.17
protein stability index [2]: 5.314 ± 0.044

FGAAGVNRLSIGLQSLDDTELRLL [RSAD1]
protein stability index [1]: 2.8 ± 0.094
protein stability index [2]: 2.76 ± 0.54

TSLGLTYDGMLSDVQSMPKTGILI [MAGEA10]
protein stability index [1]: 1.93 ± 0.39
protein stability index [2]: 2.13 ± 0.41

PTTSFLSISKLSPFSEFFKLRFNR [PWWP2B]
protein stability index [1]: 2.07 ± 0.33
protein stability index [2]: 2.13 ± 0.36

KKHGTQNKRAALQALKRKKRFEKQ [CHMP4C]
protein stability index [1]: 4.52 ± 0.3
protein stability index [2]: 4.52 ± 0.19
